# T1: T-STAR KH (UniProt O75525 50-160)
# T1 sequence: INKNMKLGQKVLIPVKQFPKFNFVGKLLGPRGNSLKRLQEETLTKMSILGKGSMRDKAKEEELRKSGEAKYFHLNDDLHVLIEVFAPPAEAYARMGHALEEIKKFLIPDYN
# T2: T-STAR KH-QUA2 (UniProt O75525 50-183)
# T2 sequence: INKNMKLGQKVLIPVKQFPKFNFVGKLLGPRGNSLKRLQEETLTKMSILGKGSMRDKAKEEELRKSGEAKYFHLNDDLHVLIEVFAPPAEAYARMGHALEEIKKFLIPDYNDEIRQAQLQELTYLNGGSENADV
# Columns and labels:
# Conditions in all cases: protein: recombinant; tags: N-terminal His tag removed by TEV
# T-STAR KH [1] = target: T1, T-STAR KH; assay: NMR 15N-1H HSQC CSP; fast exchange; T-STAR KH: 10 mM Tris-HCl pH 7 (also given as pH 6.5, 50 mM NaCl, 30 C); Sam68 KH: 20 mM sodium phosphate pH 7.0, 50 mM NaCl, 20 C; about 0.2 mM protein, protein:RNA 1:0.5 and 1:1
# T-STAR KH-QUA2 = target: T2, T-STAR KH-QUA2; assay: NMR 15N-1H HSQC CSP; T-STAR KH: 10 mM Tris-HCl pH 7 (also given as pH 6.5, 50 mM NaCl, 30 C); Sam68 KH: 20 mM sodium phosphate pH 7.0, 50 mM NaCl, 20 C; about 0.2 mM protein, protein:RNA 1:0.5 and 1:1
# T-STAR KH [2] = target: T1, T-STAR KH; assay: NMR TOCSY; 100% D2O; chemical exchange, possibly multiple registers; T-STAR KH: 10 mM Tris-HCl pH 7 (also given as pH 6.5, 50 mM NaCl, 30 C); Sam68 KH: 20 mM sodium phosphate pH 7.0, 50 mM NaCl, 20 C; about 0.2 mM protein, protein:RNA 1:0.5 and 1:1
# Sam68 KH [3] = target: T3, Sam68 KH (UniProt Q07666 150-260); assay: NMR 15N-1H HSQC CSP; T-STAR KH: 10 mM Tris-HCl pH 7 (also given as pH 6.5, 50 mM NaCl, 30 C); Sam68 KH: 20 mM sodium phosphate pH 7.0, 50 mM NaCl, 20 C; about 0.2 mM protein, protein:RNA 1:0.5 and 1:1
# T3 sequence (Q07666 150-260): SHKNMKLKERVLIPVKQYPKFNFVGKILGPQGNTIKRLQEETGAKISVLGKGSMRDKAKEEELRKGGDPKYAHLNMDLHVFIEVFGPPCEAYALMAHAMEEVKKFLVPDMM
# Sam68 KH [4] = target: T3, Sam68 KH; assay: NMR 15N-1H HSQC CSP; slow exchange; strong affinity; T-STAR KH: 10 mM Tris-HCl pH 7 (also given as pH 6.5, 50 mM NaCl, 30 C); Sam68 KH: 20 mM sodium phosphate pH 7.0, 50 mM NaCl, 20 C; about 0.2 mM protein, protein:RNA 1:0.5 and 1:1
# T-STAR KH [5] = target: T1, T-STAR KH; assay: NMR 15N-1H HSQC CSP; fast to intermediate exchange; higher affinity than AAAUAA; T-STAR KH: 10 mM Tris-HCl pH 7 (also given as pH 6.5, 50 mM NaCl, 30 C); Sam68 KH: 20 mM sodium phosphate pH 7.0, 50 mM NaCl, 20 C; about 0.2 mM protein, protein:RNA 1:0.5 and 1:1
binder,measurement,setting,value
AAAUAA (ssRNA),binding result,T-STAR KH [1],binds
same,binding result,T-STAR KH-QUA2,binds
UAAAUAAUU (ssRNA),binding result,T-STAR KH [2],binds
UAAAAUUUUU (ssRNA),binding result,T-STAR KH [2],binds
UUUUUU (ssRNA) [UUUUUU (polyU 6mer)],binding result,Sam68 KH [3],no binding
AUUAAA (ssRNA),binding result,Sam68 KH [4],binds
AAAAAA (ssRNA) [AAAAAA (polyA 6mer)],binding result,T-STAR KH [5],binds
